From patent US20140093973A1 come the findings set out here.

Usually IC50 stands for the concentration at which inhibition is half-maximal. Low values mean greater potency in that assay, high ones weaker potency in that assay. Broadly, the Kd is the concentration at which binding is half-saturated. Broadly, the EC50 is the midpoint of the concentration-response curve. Lower therefore signals higher potency in that assay. A word on the kon: it is a measure of how fast the partners come together. Low readings indicate slow association, high ones fast association. By koff is commonly meant the first-order rate constant of dissociation. Low readings indicate slow dissociation, high ones fast dissociation.

Several values for one entry are separate records, joined by “and”; a condition that tells them apart may be missing. Equal values may be shown once. Read-outs that look alike come from different tables or passages of the source. Ends that are not written are not given here. * marks the point of attachment. FITC = O=C1OC2(c3ccc(O)cc3Oc3cc(O)ccc32)c2ccc(NC(=S)*)cc21

For assay [1], the target named is soluble HLA-A*0201 (sHLA-A*0201) (human). Put plainly: standardized FP competition against 1 nM FITC-P5, 50 ug/mL sHLA-A*0201, excess b2m.
For assay [2] the target is unchanged.
Assay [3] has the same target. This is another data set of the same source.
Assay [4] has the same target. This is another data set of the same source.
Assay [5] shares this target. The source holds these as a separate data set.
Assay [6] shares this target. The source holds these as a separate data set.
The target is the same in assay [7]. This is another data set of the same source.
Assay [8] has the same target. This is another data set of the same source.
The target is the same in assay [9]. This is another data set of the same source.
Assay [10] has the same target. This is another data set of the same source.
Assay [11] has the same target. This is another data set of the same source.
The target is the same in assay [12]. The source holds these as a separate data set.
The target is the same in assay [13]. This is another data set of the same source.
Assay [14] shares this target. This is another data set of the same source.
Assay [15] shares this target. This is another data set of the same source.
Assay [16] has the same target. This is another data set of the same source.
For assay [17] the target is unchanged. The source holds these as a separate data set.
Assay [18] shares this target. This is another data set of the same source.
For assay [19] the target is unchanged. Put plainly: FP kinetics, Kd = koff/kon.
For assay [20] the target is unchanged. Put plainly: FP equilibrium titration with variable pFITC, 425 nM sHLA-A*0201, 20 C.
For assay [21] the target is unchanged. The assay can be described thus: FP real-time association kinetics, 50 ug/mL sHLA-A*0201, excess b2m, 20 C.
For assay [22] the target is unchanged. The assay can be described thus: FP real-time association kinetics, intercept of kob against ligand concentration.
Assay [23] shares this target. Put plainly: FP, pFITC P4 titrated at 425 nM (20 µg/ml) sHLA-A*0201; FPmin = 27.00 mP.
For assay [24] the target is unchanged. The assay can be described thus: FP, sHLA-A*0201 titrated against 10 nM FITC-labeled P4, plateau of the fit.
Assay [25] has the same target. The assay can be described thus: FP saturation isotherm (bound against free pFITC), 425 nM sHLA-A*0201, one-site fit.
The target is the same in assay [26]. Put plainly: FP, sHLA-A*0201 titrated against 10 nM FITC-labeled P4; the EC50 is an sHLA concentration.

B1: … (peptide)
peptide: YLLPAIVHI
modifications: not checked
In assay [1], B1 registered an IC50 of 510 nM.

B2: … (peptide)
peptide: DLVHFASPL
modifications: not checked
Regarding B2, the IC50 in assay [2] is 366000 nM.

B3: … (peptide)
peptide: KLGEFYNQMM
modifications: not checked
For B3, the IC50 is 2820 nM in [2]; 2480 to 10500 nM in assay [3]; 596 nM in [4]; 3060 nM in assay [6]; 10500 nM in [8]; 2480 nM in assay [9]. The IC50 in [10] is 2870 nM; in assay [11], 7670 nM. The log IC50 was 3.31 log nM and 3.7 log nM and 3.67 log nM in assay [5]; 3.08 log nM and 3.45 log nM in assay [7].

B4: A*0201/P5, FITC-labeled peptide ALMDKVL-K(FITC)-V (peptide)
peptide: ALMDKVLK(FITC)V
Consider B4, for which, in assay [12], the Kd came to 17.3 nM. In [13], the % binding amounted to 40%. The same molecule had a maximal FP signal in assay [14] of 220 to 230 mP. Also, in assay [15], the increase of signal upon binding was over 900% and the maximum polarization signal turned out to be 245 mP. The molecule further registered an EC50 in assay [16] of 327 nM. The FPmax in assay [17] was 195 mP. Moreover, in assay [18], the Bmax amounted to 141 nM and the Kd worked out at 17.3 nM.

B5: A*0201/P4, FITC-labeled peptide … (peptide)
peptide: LVFGKEVVEV
modifications: not fully specified
Turning to B5, the Kd in [19] came out at 28.5 nM; in [20], 21.8 nM; in assay [25] it was 21.8 nM. The kon in assay [21] was 9900 M⁻¹ s⁻¹. In [22], this molecule returned a koff of 0.000284 s⁻¹. For the same molecule, the FPmax in assay [23] was 200 mP; in assay [24] it was 230 mP. In [25], this molecule displayed a Bmax of 89.7 nM. This molecule also registered an EC50 in assay [26] of 283 nM.
